# Patent US20210340232A1, “MONOCLONAL ANTIBODIES AGAINST HUMAN DICKKOPF3 AND USES THEREOF” (Board of Regents, The University of Texas System, priority 2018, published 2021)
# “Also recorded” adds a separate entry of the source.
# B1: JM6-6-1: monoclonal antibody against human DKK3; heavy chain variable SEQ ID NO: 19, light chain variable SEQ ID NO: 20 (antibody, V domains shown)
# VH: EVKLVESGGGLVKPGGSLKLSCAASGFTFTIEYMAWIRQTPEKRLEWVASISSGGDDIYYADNVKGRFTISRDNAKNTLYLQMSSLKSEDTAIYYCSRSLSDWGQGTTLTVSSAKTTPPSDYPLA
# VL: MTQTPLSLPVSLGDQASISCRSSQSILHSNGHTYLEWYLQKPGQSPKLLIYKVSNRFSGVPDRFSGSGSGTDFTLKISRVEAEDLGVYYCFQGSHVPFTFGSGTKLEIERADAAQ
# How the values were obtained:
# [1] = tested on: 4T1 TNBC cells; experiment: 4T1 orthotopic mouse model of TNBC; format: in vivo
# Description: (FIG. 13A) DKK3 expression was measured by RT-PCR in TNBC fibroblasts (BCF), human pancreatic stellate cells (HPSC) from pancreatic adenocarcinoma (PDAC), BxPC (PDAC cancer cell) and water control. (FIG. 13B) DKK3 protein was measured by Western blotting in BCF from TNBC, in ER-positive breast cancer cells, and in TNBC cancer cell lines. (FIG. 13C) DKK3 protein was measured in patient-derived xenograft (PDX) tumors from TNBC relative to recombinant human DKK3 (rhDKK3) and conditioned medium from HPSC (HPSC-CM). Actin was used as loading control. […] Data is pooled from TCGA, EGA and GEO.
# FIGS. 14A-C. Treatment of TNBC orthotopic model with DKK3 mAb. […] Tumor growth was measured by calipers at day 33 after starting treatment and compared to initial tumor size prior to treatment. (FIG. 14B) 4T1 primary tumors and metastases were imaged using IVIS at day 33 after starting treatment. (FIG. 14C) Luciferase signal from 4T1 metastases was measured by IVIS at day 33 after starting treatment.
# Treatment of TNBC orthotopic models with DKK3 mAb was also tested. An orthotopic model using 4T1 TNBC cells labeled with firefly luciferase was treated with PBS, a control antibody, or JM6-6-1. […] The mice were also imaged to detect the primary tumors and any metastases (FIG. 14B).
# [2] = tested on: KPC/DKK3-/- model of PDAC; experiment: Survival of KPC/DKK3-/- mice (P48-Cre; Kras LSL-G12D;Trp53fl/fl; dkk3-/-); format: in vivo, mouse
# Description: HPSCs and BxPC3 cells were treated with DKK3 mAb clones JM6-6-1 and JM8-12-1 or isotype control mAb or PBS. (FIGS. 5A-B) HPSC apoptosis and migration as measured by FACS and Transwell migration assay at 48 hours. (FIG. 5C) BxPC3 migration in response to rhDKK3 10 μg/ml as measured by Transwell migration assay at 48 hours. (FIG. 5D) BxPC3 resistance to gemcitabine 100 μM as measured by MTS proliferation assay at 6 days. HPSC-CM, pancreatic stellate cell conditioned media, 10 μg/ml. The orthotopic co-injection BxPC3+ HPSC model of PDAC was used to test the efficacy of DKK3 mAb clones JM6-6-1 or JM8-12-1 (5 mg/kg i.p. once every 5 days). (FIG. 5E) Overall tumor progression was measured every 3-4 days by IVIS imaging. […]
# FIGS. 6A-F. DKK3 blockade is associated with increased tumor immune infiltrates and improves response to checkpoint inhibitor therapy. (FIG. 6A) T cells were stimulated, treated with DKK3 (5-10 μg/mL) and proliferation was measured by CFSE assay. In a syngeneic orthotopic model with luciferase-labeled KPC cells, tumors were examined for CD3 and CD8 expression by IHC (FIG. 6B) and additional markers of T cell activity were measured by quantitative PCR (FIG. 6C). Mice in this model were treated with either control IgG, DKK3 mAb JM6-6-1, αCTLA4 or the combination JM6-6-1+αCTLA4 and tumor growth was measured by IVIS imaging to 25 and 190 days (FIG. 6D). […]
molecule,measurement,setting,value
B1,luciferase signal from 4T1 metastases,"[1]; 5 mg/kg ip q5 days, IVIS day 33",prevented metastases
same,tumor size at day 33 after starting treatment compared to controls,"[1]; 5 mg/kg ip q5 days, calipers",significantly smaller
same,survival relative to control antibody and PBS,[1]; 4T1 mouse model of TNBC,improved survival; also recorded: increased survival
same,effect on survival compared to PBS or control mAb,[2],no effect on survival
same,median survival,[2],58 days
